Results reported in patent US20210101970A1 (Pfizer, published 2021).

How the values were obtained:
human CXCR5 [1] = target: T1, human CXCR5 (human, UniProt P32302 1-372); experiment: flow cytometry, human tonsil Tfh cells
T1 construct: also called hCXCR5; C-X-C chemokine receptor type 5
T1 sequence: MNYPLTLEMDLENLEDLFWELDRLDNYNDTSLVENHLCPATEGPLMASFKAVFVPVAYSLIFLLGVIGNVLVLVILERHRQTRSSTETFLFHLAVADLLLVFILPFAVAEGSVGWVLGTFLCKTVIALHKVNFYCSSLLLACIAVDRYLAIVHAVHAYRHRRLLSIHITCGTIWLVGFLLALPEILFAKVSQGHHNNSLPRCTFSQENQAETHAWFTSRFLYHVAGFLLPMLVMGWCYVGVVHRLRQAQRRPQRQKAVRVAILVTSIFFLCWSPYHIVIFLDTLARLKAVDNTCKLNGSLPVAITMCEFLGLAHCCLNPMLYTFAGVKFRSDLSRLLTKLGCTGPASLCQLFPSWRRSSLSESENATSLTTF
Description: Following centrifugation, red blood cell lysis was performed on the pellet using an ammonium chloride lysis buffer. Platelets were removed using a low speed centrifugation (200×g) for 10 minutes in Phosphate-Buffered Saline (PBS)/2% FBS/2 mM Ethylenediaminetetraacetic acid (EDTA). CD4+ T cells were purified out of the TMC mixture using an EasySep™ Human CD4+ T Cell Enrichment Kit, according to the manufacturer's instructions ([…] Technologies, Vancouver, BC, Canada).
(§1) Following isolation, PBMCs were plated at a density of 1.0×10⁵ cells per well and CD4+ TMCs were plated at a density of 2.0×10⁵ cells per well in isolation buffer (PBS containing 1% FBS and 1 mM EDTA) in 96 well U-bottom plates. The plates were then centrifuged at 1500 rpm for 5 minutes at room temperature. PBMCs and CD4+ TMCs were resuspended in Fluorescence-activated cell sorting (FACS) buffer (PBS containing 1% FBS) containing human crystallized fragment Fc block (2 μL per well; Biolegend) and 4-fold serial dilutions of the antibodies (11-point dilution series, beginning at 5000 ng/mL for PBMCs and 312.5 ng/mL for CD4+ TMCs) and incubated on ice for 2 hours. PBMCs and CD4+ TMCs were then washed with FACS buffer 3 times and resuspended in 50-100 μL of FACs buffer containing fluorescent-conjugated antibodies for staining lymphocyte subsets and a fluorescent-conjugated secondary antibody against human Ig to detect CXCR5 monoclonal antibodies (mAbs). After incubation for 30 minutes at 4° C., PBMCs and CD4+ TMCs were washed with FACS buffer 2 times and resuspended in 125 μL of 0.5% paraformaldehyde (PFA) in PBS. Plates were stored at 4° C. until analysis by flow cytometry (BD LSRFortessa™ Cell Analyzer, BD Biosciences, Franklin Lakes, N.J.).
(§2) The cell binding titration curves were generated by plotting the gMFI of the antigen binding population against the log of CXCR5 antibody concentration. EC₅₀ values were determined using GraphPad Prism® (version 6.0, GraphPad Software, Inc, San Diego, Calif.) nonlinear-regression curve fits and a sigmoidal log of agonist dose-response model, according to the following equation

human CXCR5 [2] = target: T1, human CXCR5; experiment: flow cytometry, human PBMC B cells
Description: (§3) The apparent affinity for cell surface CXCR5 of chimeric and humanized CXCR5 fucosylated and afucosylated antibodies was assessed. More specifically, to determine the apparent affinity of chimeric and humanized CXCR5 antibodies to CXCR5-expressing cells, cell binding experiments were performed on human and cynomolgus monkey peripheral blood mononuclear cells (PBMCs) and human tonsillar mononuclear cells (TMCs). The apparent affinity of CXCR5 mab binding to CXCR5+ cells (B cells, bona fide Tfh cells, and circulating Tfh-like cells) was calculated as the EC50 of equilibrium binding titration curves in which the geometric mean fluorescence intensity (gMFI) of the antigen binding population was quantified by flow cytometry.
as §1, §2

cynomolgus monkey CXCR5 [3] = target: T2, cynomolgus monkey CXCR5 (cynomolgus monkey, UniProt P32302 1-372 (human entry)); experiment: flow cytometry, cynomolgus PBMC B cells
T2 construct: also called cynoCXCR5; NHP CXCR5
T2 chain: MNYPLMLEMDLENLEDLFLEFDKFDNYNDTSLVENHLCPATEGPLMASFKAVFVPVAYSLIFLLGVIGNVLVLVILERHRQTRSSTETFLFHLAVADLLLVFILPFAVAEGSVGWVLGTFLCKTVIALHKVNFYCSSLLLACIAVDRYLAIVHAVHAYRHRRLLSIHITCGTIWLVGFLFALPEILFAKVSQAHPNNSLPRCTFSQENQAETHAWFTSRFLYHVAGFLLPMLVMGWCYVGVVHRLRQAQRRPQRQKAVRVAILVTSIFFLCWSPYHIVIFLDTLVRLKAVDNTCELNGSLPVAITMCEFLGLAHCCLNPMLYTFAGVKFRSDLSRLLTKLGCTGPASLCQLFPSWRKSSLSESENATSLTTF
Description: as §3, §1, §2

human CXCR5 [4] = target: T1, human CXCR5; experiment: cell-based or functional assay
cynomolgus monkey CXCR5 [5] = target: T2, cynomolgus monkey CXCR5; experiment: cell-based or functional assay

B1: Humanized 11G2 151/152 (antibody, human IgG1, V domains shown)
VH: EVQLVESGGGLVKPGGSLRLSCAASGFTFTDFYMSWVRQAPGKGLEWLGFIRNKANGYTTEYSAPVKGRFTISRDDSKNTLYLQMNSLKTEDTAVYYCVRVYGSTLHYWGQGTLVTVSS
VL: DIQMTQSPSSLSASVGDRVTITCRASESVEYHGTSLMHWYQQKPGKAPKLLIYAASNVESGVPSRFSGSGSGTDFTLTISSLQPEDFATYYCQQSRKVPWTFGQGTKVEIK
notes: also called h11G2 VH (XC152)/VL (XC151)
B1 was tested, and the EC50 (human CXCR5 [1]) was 3.33 pM, the EC50 (human CXCR5 [2]) was 13.1 pM and the EC50 (cynomolgus monkey CXCR5 [3]) was 10.1 pM. The “ADCC Activity Average EC50, Human B Cells” value (human CXCR5 [4]) was 377 pM and the “ADCC Activity Average EC50, NHP B Cells” value (cynomolgus monkey CXCR5 [5]) was 43.6 pM.

B2: Humanized 11G2 153/156 (antibody, human IgG1, V domains shown)
VH: EVQLVESGGGLVQPGGSLRLSCATSGFTFTDFYMSWVRQAPGKGLEWVGFIRNKANGYTTEYSASVKGRFTISRDNAKNSLYLQMNSLRAEDTAVYYCVRVYGSTLHYWGQGTLVTVSS
VL: DIQMTQSPSSLSASVGDRVTITCRASESVEYHGTSLMHWYQQKPGKAPKLLIYAASNVESGVPSRFSGSGSGTDFTLTISSLQPEDFATYFCQQSRKVPWTFGQGTKVEIK
notes: also called h11G2 VH (XC156)/VL (XC153)
In the case of B2, the EC50 (human CXCR5 [1]) is reported as 3.23 pM, the EC50 (human CXCR5 [2]) is reported as 8.88 pM and the EC50 (cynomolgus monkey CXCR5 [3]) is reported as 7.06 pM. The “ADCC Activity Average EC50, Human B Cells” value (human CXCR5 [4]) was 568 pM and the “ADCC Activity Average EC50, NHP B Cells” value (cynomolgus monkey CXCR5 [5]) was 28.1 pM.

B3: Humanized 11G2 153/155 (antibody, human IgG1, V domains shown)
VH: EVQLVESGGGLVQPGGSLRLSCAASGFTFTDFYMSWVRQAPGKGLEWVGFIRNKANGYTTEYSASVKGRFTISRDNAKNSLYLQMNSLRAEDTAVYYCARVYGSTLHYWGQGTLVTVSS
VL: DIQMTQSPSSLSASVGDRVTITCRASESVEYHGTSLMHWYQQKPGKAPKLLIYAASNVESGVPSRFSGSGSGTDFTLTISSLQPEDFATYFCQQSRKVPWTFGQGTKVEIK
notes: also called h11G2 VH (XC155)/VL (XC153)
Binder B3 has an EC50 (human CXCR5 [1]) of 4.82 pM, an EC50 (human CXCR5 [2]) of 7.79 pM and an EC50 (cynomolgus monkey CXCR5 [3]) of 7.03 pM. For the same binder, the “ADCC Activity Average EC50, Human B Cells” value (human CXCR5 [4]) was 463 pM and the “ADCC Activity Average EC50, NHP B Cells” value (cynomolgus monkey CXCR5 [5]) was 20.7 pM.

B4: Humanized 41A10 142/147 (antibody, human IgG1, V domains shown)
VH: EVQLVESGGGLVQPGGSLRLSCAASGFTFRSYGMSWVRQAPGKGLEWVATISSGGTYTFYPDILKGRITISRDNAKNSLYLQMNSLRAEDTAVYYCARRGEDYRGALEHWGQGTLVTVSS
VL: DIQMTQSPSSLSASVGDRVTITCSASSSVNYIHWYQQKPGKAPKRLIYETSRLASGVPSRFSGSGSGTDYTLTISSLQPEDFATYYCQQWSSNPLTFGQGTKVEIK
notes: also called h41A10 VH (XC147)/VL (XC142)
For B4, the EC50 (human CXCR5 [2]) was 153 pM, the EC50 (cynomolgus monkey CXCR5 [3]) was 2050 pM and the “ADCC Activity Average EC50, Human B Cells” value (human CXCR5 [4]) was 1240 pM.

B5: Humanized 41A10 142/148 (antibody, human IgG1, V domains shown)
VH: EVQLVESGGGLVQPGGSLRLSCAASGFTFRSYGMSWVRQAPGKGLEWVATISSGGTYTFYPDILKGRFTISRDNAKNSLYLQMNSLRAEDTAVYYCARRGEDYRGALEHWGQGTLVTVSS
VL: DIQMTQSPSSLSASVGDRVTITCSASSSVNYIHWYQQKPGKAPKRLIYETSRLASGVPSRFSGSGSGTDYTLTISSLQPEDFATYYCQQWSSNPLTFGQGTKVEIK
notes: also called h41A10 VH (XC148)/VL (XC142)
In the case of B5, the EC50 (human CXCR5 [2]) is reported as 152 pM, the EC50 (cynomolgus monkey CXCR5 [3]) is reported as 1960 pM and the “ADCC Activity Average EC50, Human B Cells” value (human CXCR5 [4]) is reported as 1110 pM.

B6: Afucosyl Chimeric 41A10 (antibody, human IgG1, kappa, V domains shown)
VH: EVQLVESGGDLVKPGGSLKLSCAASGFTFRSYGMSWVRQTPDKRLEWVATISSGGTYTFYPDILKGRITISRDNAKNTLYLQMSNLKSEDTAMYYCARRGEDYRGALEHWGQGTSVTVSS
VL: QIVLTQSPAVMSASPGEKVTMTCSASSSVNYIHWYQQKSGTSPKRWIYETSRLASGVPVRFSGSGSGTSYSLTISTMEAEDAATYYCQQWSSNPLTFGAGTKLELKR
modifications: afucosylated Fc glycan (Asn297)
For B6, the “ADCC Activity Average EC50, Human B Cells” value (human CXCR5 [4]) was 54.5 pM.

B7: Afucosyl Chimeric 11G2 (antibody, human IgG1, kappa, V domains shown)
VH: EVKLVESGGGLVQPGGSLRLSCATSGFTFTDFYMSWVRQPPGRALEWLGFIRNKANGYTTEYSASVKGRFTISRDNSQSILYLQMNTLRAGDSATYYCVRVYGSTLHYWGQGTILTVSS
VL: DVVVTQSPDSLAVSLGQRATISCRASESVEYHGTSLMHWYQQKPGQPPKLLIYAASNVESGVPARFSGSGSGTDFSLNIHPVEEGDIAMYFCQQSRKVPWTFGGGTKLEIKR
modifications: afucosylated Fc glycan (Asn297)
notes: made in Potelligent CHOK1SV cells
With B7 the EC50 (human CXCR5 [1]) was 45.6 pM, the EC50 (human CXCR5 [2]) was 8.09 pM and the “ADCC Activity Average EC50, Human B Cells” value (human CXCR5 [4]) was 4.39 pM. The “ADCC Activity Average EC50, Human Tfh Cells” value (human CXCR5 [4]) was 0.07 pM.
